B1: 38-bp higB-higA promoter fragment (dsDNA)
DNA 1: CTGTAGTGAAGTTAACGCTTAACGTTAAGGGTTAATGA
DNA 2: TCATTAACCCTTAACGTTAAGCGTTAACTTCACTACAG
B2: 38-bp fragment with scrambled palindrome (EMSA-(M)) (dsDNA)
DNA 1: CTGTAGTGAAGTCTAGACTTAAGCATATGGGTTAATGA
DNA 2: TCATTAACCCATATGCTTAAGTCTAGACTTCACTACAG

Target: HigA-His (Pseudomonas aeruginosa PA14, UniProt A0A0H2ZHN2 1-101)
Assay: EMSA; 0, 4 or 20 nM HigA, 300 ng DNA, 5 mM Ca2+
Conditions: protein: recombinant; tags: His (6xHis with Gly-Gly linker at C-terminus per higA cloning primer S4); chain copies: 2; label: none (ethidium bromide stain); blunt

Row | Binder | binding result
1 | B1 | binds
2 | B2 | no binding
